Data from patent publication US20190276534A1.

Molecular target: human PD-1 on CHO cells (human) (UniProt Q15116)
Test: flow cytometry, CHO cells with human PD-1 incubated with antibody 100 nM, then PD-L2-FITC; competitor PD-L2-FITC

human PD-1 on CHO cells (human), sequence (Q15116 25-288 limits assumed): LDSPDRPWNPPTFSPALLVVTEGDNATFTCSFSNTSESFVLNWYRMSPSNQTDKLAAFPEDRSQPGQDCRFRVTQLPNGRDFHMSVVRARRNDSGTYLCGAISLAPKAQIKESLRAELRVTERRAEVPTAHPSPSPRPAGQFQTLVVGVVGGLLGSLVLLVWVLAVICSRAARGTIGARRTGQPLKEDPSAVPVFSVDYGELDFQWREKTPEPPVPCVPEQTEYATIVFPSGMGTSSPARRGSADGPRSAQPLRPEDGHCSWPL

- MFI (PD-L2-FITC) in presence of the antibody: 183000
Substance: control IgG (antibody)
